From patent US20200024330A1 come the findings set out here.

What all share (assay): cell-based or functional assay
In assay [1] the target is HIV-1 92BR020 envelope glycoprotein (Env) (HIV-1).
Assay [2] has as its target HIV-1 JR-CSF Env T413A (HIV-1 (isolate JR-CSF)) (UniProt P20871).
Assay [3] concerns the target HIV-1 JR-CSF Env G324A (HIV-1 isolate JR-CSF) (UniProt P20871).
The target of assay [4] is HIV-1 JR-CSF Env S387A (HIV-1 (isolate JR-CSF)) (UniProt P20871).
Assay [5] concerns the target HIV-1 JR-CSF Env N301A (HIV-1 JR-CSF) (UniProt P20871).
For assay [6], the target named is HIV-1 JR-CSF Env N302A (HIV-1 JR-CSF) (UniProt P20871).
For assay [7], the target named is HIV-1 JR-CSF Env N339A (HIV-1 isolate JR-CSF) (UniProt P20871).
Assay [8] deals with HIV-1 93IN905 envelope glycoprotein (Env) (HIV-1).
For assay [9], the target named is HIV-1 JR-CSF Env R350A (HIV-1 isolate JR-CSF) (UniProt P20871).
In assay [10] the target is HIV-1 JR-CSF Env P299A (HIV-1 JR-CSF) (UniProt P20871).
The target in assay [11] is HIV-1 JR-CSF Env T388A (HIV-1 (isolate JR-CSF)) (UniProt P20871).
For assay [12], the target named is HIV-1 JR-CSF Env N411A (HIV-1 (isolate JR-CSF)) (UniProt P20871).
Assay [13] addresses HIV-1 Env of isolate MGRM-A-012 (HIV-1).
Assay [14] has as its target HIV-1 JR-CSF Env P313A (HIV-1 JR-CSF) (UniProt P20871).
Assay [15] addresses HIV-1 JR-CSF Env R327A (HIV-1 isolate JR-CSF) (UniProt P20871).

In the case of PGT-121 (antibody), the IC50 neutralization worked out at 0.0177 µg/mL in [1] and 0.0082 µg/mL in assay [8]. Also, the Fold IC50 increase relative to wild-type in [2] was 0.5 fold; in [3] it was 16.6 fold; in [4], 0.5 fold; in assay [5], 0.4 fold; in assay [6] it was 0.7 fold; in assay [7], 0.5 fold. The Fold IC50 increase relative to wild-type in assay [9] worked out at 0.8 fold; in assay [10] it was 0.2 fold; in assay [11], 0.9 fold; in assay [12], 0.4 fold; in [14], 0.5 fold; in assay [15], 2.5 fold. The IC50 (µg/mL), pseudovirus neutralization in [13] turned out to be 0.092 µg/mL.
In the case of PGT-122 (antibody), the IC50 neutralization in assay [1] turned out to be 0.0337 µg/mL; in [8], 0.0138 µg/mL. In addition, the Fold IC50 increase relative to wild-type in [2] came out at 0.8 fold; in assay [3] it was 12.5 fold; in assay [4] it was 0.9 fold; in [5], 0.4 fold; in assay [6], 1.1 fold; in assay [7] it was 0.4 fold. For the same substance, the Fold IC50 increase relative to wild-type in [9] worked out at 0.6 fold; in assay [10], 0.5 fold; in assay [11], 0.3 fold; in [12] it was 0.7 fold; in [14], 0.4 fold; in assay [15], 1.7 fold. For the same substance, the IC50 (µg/mL), pseudovirus neutralization in assay [13] came out at 0.257 µg/mL.
